Assay [1] has as its target T1, recombinant MST1R-Fc fusion protein (containing 25-571 amino acid sequence of human MST1R, R&D) (human, UniProt Q04912 25-571).
T1 construct: Bought from R&D systems; also called immobilized recombinant human MST1R; not shown: Fc part of the bought fusion protein (R&D systems)
T1 chain: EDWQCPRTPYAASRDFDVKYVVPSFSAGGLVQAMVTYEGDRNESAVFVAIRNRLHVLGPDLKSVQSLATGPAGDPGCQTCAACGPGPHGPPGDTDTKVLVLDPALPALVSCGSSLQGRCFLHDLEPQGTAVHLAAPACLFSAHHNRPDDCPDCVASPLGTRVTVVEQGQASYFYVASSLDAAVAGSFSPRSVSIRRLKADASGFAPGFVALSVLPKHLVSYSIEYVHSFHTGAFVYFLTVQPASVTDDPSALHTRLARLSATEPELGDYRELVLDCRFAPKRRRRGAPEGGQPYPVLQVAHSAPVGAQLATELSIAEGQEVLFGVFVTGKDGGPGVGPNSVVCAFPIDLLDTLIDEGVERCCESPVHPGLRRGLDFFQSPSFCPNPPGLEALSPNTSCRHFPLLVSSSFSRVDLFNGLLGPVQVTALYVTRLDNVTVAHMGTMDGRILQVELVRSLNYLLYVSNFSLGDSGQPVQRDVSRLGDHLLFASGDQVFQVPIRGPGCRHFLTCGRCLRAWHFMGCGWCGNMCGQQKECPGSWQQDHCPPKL
In words: Solution Equilibrium Titration (SET, ECL based), Fab.

The target of assay [2] is T1, recombinant MST1R-Fc fusion protein …. The assay can be described thus: SPR (Biacore 3000), Fab over directly immobilized MST1R-Fc. The procedure: With reference to Table 1, the affinity of MOR X antibodies was measured by surface plasmon resonance (Biacore) on immobilized recombinant human MST1R. The Biacore studies were performed on directly immobilized antigen.
The kinetic constants kₒₙ and koff were determined with serial dilutions of the respective Fab binding to covalently immobilized MST1R-Fc fusion protein (R&D systems) using the BIAcore 3000 instrument (Biacore). For covalent antigen immobilization standard EDC-NHS amine coupling chemistry was used. For direct coupling of MST1R-Fc fusion protein CM5 sensor chips (Biacore) were coated with ˜600-700 RU in 10 mM acetate buffer, pH 4.5. For the reference flow cell a respective amount of HSA (human serum albumin) was used. Kinetic measurements were done in PBS (136 mM NaCl, 2.7 mM KCl, 10 mM Na₂HPO₄, 1.76 mM KH₂PO₄ pH 7.4) at a flow rate of 20 μl/min using Fab concentration range from 15.6-500 nM. Injection time for each concentration was 1 min, followed by 3 min dissociation phase. For regeneration […] 10 mM HCl was used. All sensograms were globally fitted using BIA evaluation software 3.2 (Biacore).

Assay [3] shares this target. In words: Solution Equilibrium Titration (SET, ECL based), Fab; SET (Fab), in solution; not Biacore on immobilized antigen.
Assay [4] addresses MST1R on cells (293alpha cells transfected with pcDNA-DEST40 MST1R; endogenous on PC3, T-47D and BxPC-3 cells) (human, UniProt Q04912 25-1400). The assay can be described thus: cell-based or functional assay.
Assay [5] deals with T2, cynomolgus monkey MST1R with N-terminal Flag tag, expressed on HEK293T cells (cynomolgus monkey, UniProt Q04912 27-1400 (human entry)).
T2 construct: ORF cloned excluding the signal peptide region; also called cynomolgus MST1R; not shown: N-terminal Flag tag from vector pFLAG-myc-CMV-19 (Sigma)
T2 chain: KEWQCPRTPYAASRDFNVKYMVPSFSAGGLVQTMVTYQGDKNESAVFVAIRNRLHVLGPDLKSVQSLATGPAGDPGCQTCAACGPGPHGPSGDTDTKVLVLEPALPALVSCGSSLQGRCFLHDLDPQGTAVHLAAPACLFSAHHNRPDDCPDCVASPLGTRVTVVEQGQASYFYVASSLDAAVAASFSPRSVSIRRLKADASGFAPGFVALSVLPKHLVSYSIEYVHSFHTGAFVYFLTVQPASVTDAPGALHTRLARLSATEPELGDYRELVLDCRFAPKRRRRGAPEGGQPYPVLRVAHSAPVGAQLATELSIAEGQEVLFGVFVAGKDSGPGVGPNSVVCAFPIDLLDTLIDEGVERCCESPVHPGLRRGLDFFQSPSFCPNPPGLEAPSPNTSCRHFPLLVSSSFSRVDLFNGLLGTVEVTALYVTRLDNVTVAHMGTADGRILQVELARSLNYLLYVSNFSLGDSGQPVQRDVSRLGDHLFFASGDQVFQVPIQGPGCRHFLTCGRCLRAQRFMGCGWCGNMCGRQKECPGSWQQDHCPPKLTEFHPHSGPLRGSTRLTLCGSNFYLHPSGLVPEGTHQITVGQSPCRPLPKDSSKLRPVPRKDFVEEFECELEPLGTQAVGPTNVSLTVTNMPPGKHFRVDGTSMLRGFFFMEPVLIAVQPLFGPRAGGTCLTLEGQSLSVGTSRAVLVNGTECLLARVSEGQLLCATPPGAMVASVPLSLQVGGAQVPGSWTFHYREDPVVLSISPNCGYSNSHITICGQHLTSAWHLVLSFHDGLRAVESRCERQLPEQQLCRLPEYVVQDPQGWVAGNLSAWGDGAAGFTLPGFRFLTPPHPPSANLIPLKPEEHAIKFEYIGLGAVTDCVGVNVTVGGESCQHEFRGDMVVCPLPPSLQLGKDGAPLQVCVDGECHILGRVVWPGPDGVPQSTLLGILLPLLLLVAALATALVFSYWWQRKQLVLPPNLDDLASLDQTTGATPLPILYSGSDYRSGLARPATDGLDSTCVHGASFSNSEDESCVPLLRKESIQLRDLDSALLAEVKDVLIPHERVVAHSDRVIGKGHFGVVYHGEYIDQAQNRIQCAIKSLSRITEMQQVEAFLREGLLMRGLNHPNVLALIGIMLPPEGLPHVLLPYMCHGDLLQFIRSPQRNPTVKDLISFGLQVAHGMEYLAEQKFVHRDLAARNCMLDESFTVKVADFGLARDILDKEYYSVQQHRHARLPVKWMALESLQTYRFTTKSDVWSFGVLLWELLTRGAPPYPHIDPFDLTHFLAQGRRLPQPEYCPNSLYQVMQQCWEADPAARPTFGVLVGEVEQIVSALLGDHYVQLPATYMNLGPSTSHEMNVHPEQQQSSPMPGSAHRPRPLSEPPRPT
The assay can be described thus: flow cytometry on transfected HEK293T cells, 2 ug/ml IgG1. On the procedure:
Cells (5×10⁵ cells/well) were incubated with Fab or IgG antibodies at the indicated concentrations in 50 μl FACS buffer (PBS, 5% FCS) for 60 min at 4° C. in round bottom 96-well culture plates (Corning). Cells were washed twice and then incubated with Fluorescein Isothiocyanate (FITC) conjugated detection antibody for 30 min at 4° C. Cells were washed again, resuspended in 0.3 ml FACS buffer and then analyzed by flow cytometry in a Cytomics FC500 (Beckman Coulter, Inc.). Data were analysed via FlowJo software (Tomy digital biology Co., Ltd.). Polyclonal goat anti-hMSP R IgG (R&D systems) or anti-FLAG M2 antibody (Sigma) was used as a positive control and MOR03207 (anti-lysozyme) antibody was used as a negative control.
FACS-analysis of MST1R ortholog-expressing cells: Human MST1R (cDNA nucleotide sequence is shown as GenBank Accession No: NM_{—}002447.2), cynomolgus monkey MST1R and mouse MST1R (cDNA nucleotide sequence is shown as GeneBank Accession No: NM_{—}009074.1) expression vector containing N-terminal Flag tag (pFLAG-myc-CMV-19, Sigma) were constructed. cDNA encoding cynomolgus monkey MST1R was amplified by PCR using cynomolgus monkey stomach cDNA as a template with forward and reverse primers having nucleotide sequences of SEQ ID NO: 34 and 35, respectively. By sequencing analysis of PCR product, the cynomolgus MST1R ORF nucleotide sequence was identified as shown in SEQ ID NO: 36. The corresponding amino acid sequence was shown in SEQ ID NO: 37. Then human, cynomolgus monkey and mouse MST1R ORF cDNA, excluding signal peptide regions, were amplified using respective forward and reverse primers having nucleotide sequences of SEQ ID NO: 38 and 39 (human), 40 and 41 (cynomolgus monkey), and 42 and 43 (mouse) with appropriate cloning sites and then cloned into pFLAG-myc-CMV-19. An amplified human MST1R fragment encodes amino acids corresponding to GenBank Accession No: NP_{—}002438.2 (SEQ ID NO: 45). A Mouse MST1R fragment encodes amino acids corresponding to GenBank Accession No: NP_{—}033100.1 (SEQ ID NO: 47) except for those amino acid differences at positions: 688 (Leu to Pro), 713 (Ile to Val), 714 (Ala to Gly) and 719 (Ala to Val). These expression vectors were transfected into HEK293T cells. For FACS-analysis, cells were incubated with 2 μg/ml primary antibodies followed by incubation with FITC-labeled secondary antibody as described above.
In general terms: Flow cytometry measures light scatter and fluorescence of single cells or particles in a stream.

B1: MOR07923 Fab (Fab, V domains shown)
VH: QVQLVESGGGLVQPGGSLRLSCAASGFTFNSYSMSWVRQAPGKGLEWVSYISSRSSTTYYADSVKGRFTISRDNSKNTLYLQMNSLRAEDTAVYYCARGYFHGMDYWGQGTLVTVSS
VL: DIVLTQSPATLSLSPGERATLSCRASQSVSFDYLGWYQQKPGQAPRLLIYGASNRATGVPARFSGSGSGTDFTLTISSLEPEDFATYYCFQYLIVPFTFGQGTKVEIKR
notes: carries two C-terminal tags (FLAG and Strep-tag II); also called Fab MOR07923
Turning to B1, the results for the Kd in assay [1] and in assay [2] were 0.02 nM and 0.07 nM, respectively.

B2: MOR07925 Fab (Fab, V domains shown)
VH: QVQLVESGGGLVQPGGSLRLSCAASGFTFNSYSMSWVRQAPGKGLEWVSYISSRSSTTYYADSVKGRFTISRDNSKNTLYLQMNSLRAEDTAVYYCARGYFHGMDYWGQGTLVTVSS
VL: DIVLTQSPATLSLSPGERATLSCRASQSVSFDYLGWYQQKPGQAPRLLIYGASNRATGVPARFSGSGSGTDFTLTISSLEPEDFATYYCLQYFNPPHTFGQGTKVEIKR
notes: carries two C-terminal tags (FLAG and Strep-tag II); also called Fab MOR07925
B2: the Kd (usually the equilibrium constant for the complex coming apart) worked out at 0.01 nM in assay [1] and 0.02 nM in assay [2].

B3: MOR07926 Fab (Fab, V domains shown)
VH: QVQLVESGGGLVQPGGSLRLSCAASGFTFNSYSMSWVRQAPGKGLEWVSYISSRSSTTYYADSVKGRFTISRDNSKNTLYLQMNSLRAEDTAVYYCARGYFHGMDYWGQGTLVTVSS
VL: DIVLTQSPATLSLSPGERATLSCRASQSVSFDYLGWYQQKPGQAPRLLIYGASNRATGVPARFSGSGSGTDFTLTISSLEPEDFATYYCFQALIMPFTFGQGTKVEIKR
notes: carries two C-terminal tags (FLAG and Strep-tag II); also called Fab MOR07926
Consider B3, for which the Kd turned out to be 0.04 nM in assay [1] and 0.13 nM in assay [2].

B4: MOR07924 Fab (Fab, V domains shown)
VH: QVQLVESGGGLVQPGGSLRLSCAASGFTFNSYSMSWVRQAPGKGLEWVSYISSRSSTTYYADSVKGRFTISRDNSKNTLYLQMNSLRAEDTAVYYCARGYFHGMDYWGQGTLVTVSS
VL: DIVLTQSPATLSLSPGERATLSCRASQSVSFDYLGWYQQKPGQAPRLLIYGASNRATGVPARFSGSGSGTDFTLTISSLEPEDFATYYCQQYNINPFTFGQGTKVEIKR
notes: carries two C-terminal tags (FLAG and Strep-tag II); also called Fab MOR07924
On to B4, for which the Kd in assay [1] was 0.03 nM; in assay [2], 0.2 nM.

B5: MOR07692 Fab (Fab, V domains shown)
VH: QVQLVESGGGLVQPGGSLRLSCAASGFTFNSYSMSWVRQAPGKGLEWVSYISSRSSTTYYADSVKGRFTISRDNSKNTLYLQMNSLRAEDTAVYYCARGYFHGMDYWGQGTLVTVSS
VL: DIVLTQSPATLSLSPGERATLSCRASQSVSFDYLGWYQQKPGQAPRLLIYGASNRATGVPARFSGSGSGTDFTLTISSLEPEDFATYYCQQYYNMPYTFGQGTKVEIKR
notes: carries two C-terminal tags (FLAG and Strep-tag II); also called Fab MOR07692
With B5, the Kd in assay [3] amounted to 0.25 nM; in assay [2], 0.8 nM.

B6: MOR07919 (human IgG1) (antibody, V domains shown)
VH: QVQLVQSGAEVKKPGESLKISCKGSGYSFTNYWISWVRQMPGKGLEWMGFIYPDDSYTRYSPSFQGQVTISADKSISTAYLQWSSLKASDTAMYYCARFSYRHYLDMDDHWGQGTLVTVSS
VL: DIELTQPPSVSVAPGQTARISCSGDSLGSKYVHWYQQKPGQAPVLVIYRDNKRPSGIPERFSGSNSGNTATLTISGTQAEDEADYYCQSYDATEFTYVFGGGTKLTVLG
For B6, in assay [4], the “Reporter assay IC50 (ng/ml); Elk1 luciferase reporter gene assay in the presence of 100 ng/ml MSP” value turned out to be 87.6 ng/mL. In addition, in assay [5], the binding result was “binds”.

B7: MOR07919 Fab (Fab, V domains shown)
VH: QVQLVQSGAEVKKPGESLKISCKGSGYSFTNYWISWVRQMPGKGLEWMGFIYPDDSYTRYSPSFQGQVTISADKSISTAYLQWSSLKASDTAMYYCARFSYRHYLDMDDHWGQGTLVTVSS
VL: DIELTQPPSVSVAPGQTARISCSGDSLGSKYVHWYQQKPGQAPVLVIYRDNKRPSGIPERFSGSNSGNTATLTISGTQAEDEADYYCQSYDATEFTYVFGGGTKLTVLG
notes: carries two C-terminal tags (FLAG and Strep-tag II); also called Fab MOR07919
Regarding B7, the Kd in assay [1] came to 0.27 nM; in assay [2], 0.98 nM.
